# Where “and” joins values, the source holds several entries; their conditions need not be identical. Equal entries are not always repeated.
# What was measured:
# HO-1 [1] = assay: Renal cortical HO-1 mRNA (RT-PCR) and protein (ELISA) after IV myoglobin, SnPP or both (Example 1); type: in vivo, mice
# From the text: The Glycerol Model of AKI. This is a widely used model of rhabdomyolysis-induced AKI that has been employed worldwide for 50 years. The model was used to test whether prophylactic interventions confer protection against AKI. Basically, the protocol is as follows: Male CD-1 mice (35-45 grams), obtained from Charles River Laboratories, Wilmington, M A were studied. Mice were maintained under standard vivarium conditions and generally housed for 1-3 weeks prior to study. The mice were placed in a cylindrical restraining cage, and then were given a tail vein injection of the test substances (see below) or test substance vehicle. The mice were then returned to their cages. Eighteen hours (hrs) later, the mice were briefly anesthetized by isoflurane inhalation, and given an intramuscular injection of hypertonic (50%) glycerol in a dose of 9 ml/Kg body weight. The dose is divided in two, with half injected into the muscle of each of the hind limbs. The mice were then returned to their cages. Eighteen hrs later, the mice were deeply anesthetized with pentobarbital (50-100 mg/Kg), the abdominal cavity was opened through a midline abdominal incision, a blood sample was obtained from the abdominal vena cava and the kidneys were resected. A kidney cross section was obtained and fixed in formalin for subsequent histologic analysis. The terminal blood samples were analyzed for BUN and creatinine, using commercially available assay kits. The remaining kidney tissue was subjected to cortical dissection, and the cortical tissues were then extracted for protein and RNA. The protein samples were saved for analysis of HO-1 levels, and the RNA samples were subjected to RT-PCR to quantify HO-1 mRNA as well as levels of other stress gene mRNAs (e.g. NGAL, haptoglobin, hemopexin, hepicidin).
# Myoglobin+SnPP: To 5 mg of dry myoglobin was added 0.9 ml of PBS+0.1 ml of a stock SnPP solution (50 umole/ml). The resulting final concentrations were 5 mg/ml myoglobin+5 umoles/ml of SnPP. The tail vein was injected with 200 μl of this solution, which equals 1 mg myoglobin+1 umole SnPP. […]
# Four hr post myoglobin vs myoglobin+SnPP vs SnPP alone experiments. To confirm that the myoglobin+SnPP has a synergistic effect in inducing HO-1 mRNA and HO-1 protein levels, each of the above combinations have been administered alone via tail vein injection. Four hrs later, the mice were sacrificed as noted above and the kidneys were harvested for assessment of HO-1 mRNA and protein levels. For additional information regarding methods, see Zager et al., Am J Physiol Renal Physiol. 2014 Jul. 30. Pii.
# haptoglobin = assay: Haptoglobin protein expression after SQ injection of myoglobin or myoglobin + PEG; type: in vivo, mice; conditions: 4 hour time point after SQ injection; control 9.5
# Method: Myoglobin+PEG: To a stock solution of 20 mg/ml Mgb in PBS was added 100 mg/ml of PEG-6000; 250 ul. This was administered as a subcutaneous injection in the dorsal neck (250 ul total injection). For combined Mgb/PEG+SnPP, SnPP was added to the above in a concentration of 3 mg/ml.
# [2] = Plasma LDH 4 hr after IV test agents (marker of liver, kidney, lung and heart injury); type: in vivo, mice; conditions: 4 hr IV
# HK-2 cells = assay: Myoglobin toxicity in HK-2 cells, MTT assay; type: cell-based; conditions: 10 mg/mL, 18 hr incubation, vs control incubated cells
# Method: Example 3. […] HK-2 cells (a proximal tubule cell line derived from normal human kidney) were incubated in keratinocyte serum free medium either under normal (control) conditions or in the presence of 10 mg/mL horse skeletal muscle myoglobin or nitrited myoglobin (produced by equimolar Na nitrite addition to 10 mg/ml myoglobin). After 18 hr incubations, the severity of cell injury (% cell death) was assessed by MTT assay. Myoglobin induced 40% cell death (40% decrease in MTT cell uptake), compared to control incubated cells. Nitrite binding to myoglobin reduced cell death by 75%. Thus, nitrite binding is able to reduce myoglobin's cytotoxic effects.
# HO-1 [3] = assay: Renal cortical HO-1 mRNA (RT-PCR) and protein (ELISA) after IV myoglobin, SnPP or both (Example 1); type: in vivo, mice; conditions: 1 mg myoglobin, 1 μmole SnPP
molecule,measurement,setting,value
"Myoglobin: Lyophilized horse skeletal muscle (myoglobin) (Sigma Chemicals) used as the test agent (protein, listed as Homo sapiens) MGLSDGEWQLVLNVWGKVEADIPGHGQEVLIRLFKGHPETLEKFDKFKHLKSEDEMKASEDLKKHGATVLTALGGILKKKGHHEAEIKPLAQSHATKHKIPVKYLEFISECIIQVLQSKHPGDFGADAQGAMNKALELFRKDMASNYKELGFQG","HO-1 protein expression (by ELISA), Average","HO-1 [1]; cortex, 4 hr IV, 1 mg myoglobin, 1 μmole SnPP, PBS 13.5, carrier 21.5",45.4 ng HO-1/mg protein
same,HO-1 protein expression (by ELISA),"HO-1 [1]; cortex, 4 hr IV, 1 mg myoglobin, 1 μmole SnPP, individual mice",40.7 ng HO-1/mg protein and 40.2 ng HO-1/mg protein and 64.7 ng HO-1/mg protein and 36.0 ng HO-1/mg protein
same,"HO-1/GAPDH mRNA, Average","HO-1 [1]; kidney, 4 hr post IV injection, control average 1.93",3.93
same,HO-1/GAPDH mRNA,"HO-1 [1]; kidney, 4 hr post IV injection, individual mice",7.78 and 2.93 and 2.58 and 2.41
same,Haptoglobin protein expression,haptoglobin,32.7 ± 6.3 ng/mg protein
same,"Plasma LDH, Average",[2]; carrier 4.43,4.47 Absorbance U LDH/ml
same,Plasma LDH,[2]; individual subjects,4.54 Absorbance U LDH/ml (2×) and 3.90 Absorbance U LDH/ml and 4.91 Absorbance U LDH/ml
same,Cell death (decrease in MTT cell uptake),HK-2 cells,40%
same,HO-1 mRNA induction (HO-1/GAPDH mRNA),"HO-1 [3]; overnight (roughly 18 hrs) post IV, individual subjects",0.71 and 0.53 and 0.51
same,HO-1 protein induction,"HO-1 [3]; overnight (roughly 18 hrs) post IV, individual subjects, in ng/mg protein",50.6 and 34.9 and 24.6
same,"HO-1 mRNA induction (HO-1/GAPDH mRNA), Average","HO-1 [3]; overnight post IV, control 0.46",0.58
same,"HO-1 protein induction, Average","HO-1 [3]; overnight post IV, control 20.5",36.7

# Source: US20250195556A1, “COMPOSITIONS, KITS, AND METHODS TO INDUCE ACQUIRED CYTORESISTANCE USING STRESS PROTEIN INDUCERS” (FRED HUTCHINSON CANCER RESEARCH CENTER, priority 2014, published 2025)
